Results as given in patent US20260193366A1 (APOGEE THERAPEUTICS, published 2026).

T1: human IL-4Rα (human, UniProt P24394 26-232)
T1 construct: also called Hu IL-4Rα; hIL-4Rα
T1 sequence: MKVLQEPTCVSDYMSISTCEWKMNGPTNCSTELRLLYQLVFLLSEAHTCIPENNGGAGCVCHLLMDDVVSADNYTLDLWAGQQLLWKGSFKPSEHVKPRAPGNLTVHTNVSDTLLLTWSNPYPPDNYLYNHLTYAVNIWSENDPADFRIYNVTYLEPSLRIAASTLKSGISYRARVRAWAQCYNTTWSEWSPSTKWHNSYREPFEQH

T2: cynomolgus monkey IL-4Rα (cynomolgus monkey, UniProt P24394 26-231 (human entry), limits assumed)
T2 construct: also called Cyno IL-4Rα; cyIL-4Rα
T2 chain: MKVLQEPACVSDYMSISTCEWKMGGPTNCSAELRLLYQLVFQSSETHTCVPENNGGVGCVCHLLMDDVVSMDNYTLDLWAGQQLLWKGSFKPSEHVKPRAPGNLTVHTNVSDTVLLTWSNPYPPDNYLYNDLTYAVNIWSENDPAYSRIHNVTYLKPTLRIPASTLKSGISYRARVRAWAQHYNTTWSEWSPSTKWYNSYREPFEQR

T3: hIL-4Rα on cells (human, UniProt P24394 26-825)
T3 sequence: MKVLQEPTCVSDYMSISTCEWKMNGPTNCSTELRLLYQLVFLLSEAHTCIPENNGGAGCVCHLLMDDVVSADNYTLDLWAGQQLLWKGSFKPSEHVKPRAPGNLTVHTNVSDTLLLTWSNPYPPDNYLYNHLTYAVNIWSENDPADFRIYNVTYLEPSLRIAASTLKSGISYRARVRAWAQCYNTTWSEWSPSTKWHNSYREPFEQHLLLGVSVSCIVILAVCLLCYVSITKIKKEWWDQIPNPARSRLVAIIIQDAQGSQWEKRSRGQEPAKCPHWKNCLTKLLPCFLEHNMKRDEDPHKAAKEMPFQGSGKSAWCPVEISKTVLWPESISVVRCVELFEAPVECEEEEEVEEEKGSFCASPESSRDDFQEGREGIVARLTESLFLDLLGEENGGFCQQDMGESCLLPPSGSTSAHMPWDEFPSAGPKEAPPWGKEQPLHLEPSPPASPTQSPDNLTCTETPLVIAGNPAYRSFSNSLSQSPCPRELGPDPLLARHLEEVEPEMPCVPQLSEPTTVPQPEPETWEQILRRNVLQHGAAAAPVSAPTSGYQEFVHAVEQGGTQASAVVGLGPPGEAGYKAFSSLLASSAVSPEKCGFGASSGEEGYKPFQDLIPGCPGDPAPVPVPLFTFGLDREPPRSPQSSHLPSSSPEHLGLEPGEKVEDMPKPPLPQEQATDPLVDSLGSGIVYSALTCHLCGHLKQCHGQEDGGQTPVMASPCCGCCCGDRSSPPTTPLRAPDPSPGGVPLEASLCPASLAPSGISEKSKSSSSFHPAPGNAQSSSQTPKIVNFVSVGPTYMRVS


Assays:
human IL-4Rα = molecular target: T1, human IL-4Rα; test: SPR, Carterra LSA;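 also: antibodies captured on an anti-human Fc sensor chip, antigen injected at several concentrations, association and dissociation rates fitted with a 1:1 Langmuir model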
Method: (§1) Binding affinity (KD) of antibodies to human and cynomolgus monkey IL-4Rα was determined through surface plasmon resonance (SPR) using a Carterra LSA. Briefly, an HC30M sensor chip that was previously functionalized with a polyclonal mixture of goat anti-human Fc antibody and used to capture purified antibodies at a level between 100-1000 RLU. […] Regeneration of the chip between different concentrations of antigen was performed with 200 mM phosphoric acid and antibody was captured again as previously described. Association and dissociation rate constants were subsequently determined through fitting to a 1:1 Langmuir binding model using the Kinetics Software from Carterra from which a KD value was derived.

cynomolgus monkey IL-4Rα = molecular target: T2, cynomolgus monkey IL-4Rα; test: SPR, Carterra LSA;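 also: antibodies captured on an anti-human Fc sensor chip, antigen injected at several concentrations, association and dissociation rates fitted with a 1:1 Langmuir model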
Method: as §1

hIL-4Rα on cells [1] = molecular target: T3, hIL-4Rα on cells; test: cell-based or functional assay
hIL-4Rα on cells [2] = molecular target: T3, hIL-4Rα on cells; test: cell-based or functional assay; remark: listed apart in the source
hIL-4Rα on cells [3] = molecular target: T3, hIL-4Rα on cells; test: cell-based or functional assay; remark: listed apart in the source
hIL-4Rα on cells [4] = molecular target: T3, hIL-4Rα on cells; test: FACS on HEK293 cells, competitor biotin-hIL-4;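 also: HEK293 cells stably co-expressing hIL-13Rα and hIL-4Rα, stained for 1 h at 4 °C, read-out as mean fluorescence intensity by flow cytometry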
hIL-4Rα on cells [5] = molecular target: T3, hIL-4Rα on cells; test: FACS on HEK293 cells, competitor biotin-hIL-13;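 also: stably transduced cells co-expressing both receptor chains, stained cold, with cell-bound signal read as mean fluorescence intensity by flow cytometry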
Method: Briefly, HEK293 previously transduced to stably express both hIL-13Rα and hIL-4Rα were cultured and harvested. Cells were seeded at 200,000 cells in 100 uL per well. Cells were washed and the supernatant discarded. […] The cells were stained in this mixture at 4° C. for 1 hour. […] Cells were incubated 4° C. for 1 hour, protected from light. Cells were then washed and the MFI of cells in each well were recorded by FACS using a BD FACSCanto II. Subsequent data were analyzed using GraphPad Prism.

| Binder | KD Relative to Dupilumab (human IL-4Rα) | Kd (human IL-4Rα) | KD Relative to Dupilumab (cynomolgus monkey IL-4Rα) | Kd (cynomolgus monkey IL-4Rα) | Relative Inhibition of IL-4 induced pSTAT6 IC50 (hIL-4Rα on cells [1]) | Relative Inhibition of IL-13 induced pSTAT6 IC50 (hIL-4Rα on cells [1]) | Relative Inhibition of IL-4 induced TARC IC50 (hIL-4Rα on cells [2]) | Relative Inhibition of IL-13 induced TARC IC50 (hIL-4Rα on cells [2]) | Relative Inhibition of IL-4 induced TF-1 Proliferation IC50 (hIL-4Rα on cells [3]) | Relative Inhibition of IL-13 induced TF-1 Proliferation IC50 (hIL-4Rα on cells [3]) | Relative Blockade of IL-4 Binding IC50 (hIL-4Rα on cells [4]) | Relative Blockade of IL-13 Binding IC50 (hIL-4Rα on cells [5]) |
| --- | --- | --- | --- | --- | --- | --- | --- | --- | --- | --- | --- | --- |
| Construct 20 (mAb428) (antibody, IgG4, V domains shown, VH/VL only) VH: EVQLVESGGGLEQPGGSLRLSCAGSGFTFRDFAMTWVRQAPGKGLEWVSSISGSGDNTYYADSVKGRFTISRDNSKNTLYLQMNSLRAEDTAVYYCAKDRLSITVRPRYYGLDVWGQGTTVTVSS VL: DIVMTQSPLSLPVTPGEPASISCTSSQSLLYSIGYNYVDWYLQKSGQSPQLLIYLGNKRASGVPDRFSGSGSGTDFTLKISRVEAEDVGFYYCMQSLQTPYVFGQGTKLEIK | 1.41 | 0.0159 nM | 0.13 | 80.8 nM | 1.28 relative to dupilumab | 1.86 relative to dupilumab | 3.63 relative to dupilumab | 1.83 relative to dupilumab | 1.12 relative to dupilumab | 1.38 relative to dupilumab | 1.44 relative to dupilumab | 1.14 relative to dupilumab |
| Construct 25 (mAb433) (antibody, IgG4, V domains shown, VH/VL only) VH: EVQLVESGGGLEQPGGSLRLSCAGSGFTFRDFAMTWVRQAPGKGLEWVSSISGSGDNIYYADSVKGRFTISRDNSKNTLYLQMNSLRAEDTAVYYCAKDRLSKTIRPRYYGLDVWGQGTTVTVSS VL: DIVMTQSPLSLPVTPGEPASISCTASQSLLYSIGYNYLDWYLQKSGQSPQLLIYEGNKRASGVPDRFSGSGSGTDFTLKISRVEAEDVGFYYCMQSLTSPYTFGQGTKLEIK | 0.94 | 0.0107 nM | 1.12 | 703 nM | 1.33 relative to dupilumab | 1.82 relative to dupilumab | 1.17 relative to dupilumab | 1.78 relative to dupilumab | 2.04 relative to dupilumab | 1.31 relative to dupilumab | 1.36 relative to dupilumab | 1.09 relative to dupilumab |
| Construct 21 (mAb429) (antibody, IgG4, V domains shown, VH/VL only) VH: EVQLVESGGGLEQPGGSLRLSCAGSGFTFRTYAMTWVRQAPGKGLEWVSSISGSGGNIYYADSVKGRFTISRDNSKNTLYLQMNSLRAEDTAVYYCAKDRVSIYVRPRYYGLDVWGQGTTVTVSS VL: DIVMTQSPLSLPVTPGEPASISCTASQSLLYSIGYNYVDWYLQKSGQSPQLLIYLGSKRASGVPDRFSGSGSGTDFTLKISRVEAEDVGFYYCMQSLTSPYTFGQGTKLEIK | 0.76 | 0.00857 nM | 0.02 | 14.4 nM | 0.305 relative to dupilumab | 0.447 relative to dupilumab | 0.342 relative to dupilumab | 0.313 relative to dupilumab | 0.509 relative to dupilumab | 0.498 relative to dupilumab | 0.749 relative to dupilumab | 0.706 relative to dupilumab |
| Construct 23 (mAb431) (antibody, V domains shown, VH/VL only) VH: EVQLVESGGGLEQPGGSLRLSCAGSGFTFRDFAMTWVRQAPGKGLEWVSSISGGGGSTYYADSVKGRFTISRDNSKNTLYLQMNSLRAEDTAVYYCAKDRLSVTVRPRYYGLDVWGQGTTVTVSS VL: DIVMTQSPLSLPVTPGEPASISCRSSQSVLYSIGKNYVDWYLQKSGQSPQLLIYLGSQRATGVPDRFSGSGSGTDFTLKISRVEAEDVGFYYCMQSLTSPYTFGQGTKLEIK | 0.67 | 0.00762 nM | 0.1 | 63.3 nM | 0.483 relative to dupilumab | 0.475 relative to dupilumab | 0.557 relative to dupilumab | 0.579 relative to dupilumab | 0.823 relative to dupilumab | 0.732 relative to dupilumab | 1.07 relative to dupilumab | 0.793 relative to dupilumab |
